In assay [1] the test system is HEL cells. Nature of the assay: Thrombopoietin-like activity, tyrosine phosphorylation levels in HEL cells (dot blot). The format is cell-based, human. The following applies: for increase in tyrosine phosphorylation levels compared with rhTPO: culture supernatant diluted, 20 minutes, rhTPO 10 to 100 ng/mL, FIG. 41. As to the method:
The thrombopoietin-like activity of the TPO-PAS dimer peptide was evaluated by quantification of tyrosine phosphorylation levels in HEL cells, a human leukemia-derived blood cell line. 200,000 HEL cells were cultured in RPMI 1640 medium without FBS (Thermo Fisher Scientific) for 24 hours and starved. The cells were stimulated for 20 minutes in RPMI 1640 medium supplemented with 10 to 100 ng/mL recombinant human TPO (rhTPO, Peprotech) or a culture supernatant containing AET-TPO1-PAS8, TPO2-PAS8, or AET-TPO2-PAS8 at a predetermined dilution factor. As a negative control, PBS (Mock group) or a supernatant expressing no peptide (Empty group) by using an empty vector was added, and stimulation was performed for 20 minutes. After removing the medium and washing the cells once with PBS, the cells were lysed by adding 100 μL of Lysis buffer 17 (R&D Systems) supplemented with Protease inhibitor cocktail (Nacalai Tesque). The lysate solution was centrifuged at 14,000 G for 5 minutes to obtain the supernatant as lysate.
APVDF membrane (Immobilon-P membrane 0.45 m, Merck) was treated with methanol for 1 minute and then with ultrapure water for 5 minutes for hydrophilic treatment. The PVDF membrane was dried, and each cell lysate solution was spotted with a 1 μL pipette and dried. The PVDF membrane was blocked with PVDF Blocking Reagent for Can Get Signal (NOF) at room temperature for 1 hour, and then Can Get Signal Solution 2 (NOF), supplemented with anti-pY antibody-[…] conjugate (Cell Signaling Technology) at 1:5000, was added, followed by an antibody reaction at 4° C. for 24 hours. The membrane was washed 3 times with TBST buffer, Luminata Crescendo Western HRP Substrate (Merck) was added, and a chemiluminescence reaction was carried out. Chemiluminescence was detected using Amersham Imager 600 (GE Healthcare). The luminescence intensity of the detected dots was quantified by ImageJ.

The subject of assay [2] is HEL cells. Nature of the assay: Signal characteristics, Proteome Profiler Human Phospho-Kinase Array Kit, HEL cells. The format is cell-based. The following applies: 100 ng/mL rhTPO or culture supernatant 1/100 to 1/1000, 20 minutes, FIG. 43. As to the method:
The signal characteristics of the TPO-PAS dimer peptide were evaluated using Proteome Profiler Human Phospho-Kinase Array Kit (R&D Systems).
1,000,000 HEL cells were cultured in RPMI 1640 medium without FBS (Thermo Fisher Scientific) for 24 hours and starved. The cells were stimulated for 20 minutes in RPMI 1640 medium supplemented with 100 ng/mL recombinant human TPO (rhTPO, Peprotech) or a culture supernatant containing TPO2-PAS8 at a dilution of 1/100 to 1/1000. As a negative control, PBS was added, and stimulation was performed for 20 minutes (Mock group). After removing the medium and washing the cells once with PBS, the cells were lysed by adding 200 μL of Lysis buffer 17 (R&D Systems) supplemented with Protease inhibitor cocktail (Nacalai Tesque). The lysate solution was centrifuged at 14,000 G for 5 minutes to obtain the supernatant as lysate.
The lysate was analyzed using Proteome Profiler Human Phospho-Kinase Array Kit. Amersham Imager 600 (GE Healthcare) was used to detect chemiluminescence. The chemiluminescence intensity of the dots was quantified using ImageJ. […] The signal pathway stimulated by rhTPO is mainly the JAK2/Stat3,5 pathway, and all of the proteins with increased phosphorylation levels are included in the pathway.

The target in assay [3] is T1, FGFR (Homo sapiens, UniProt P11362).
T1 construct: endogenous in cells; host or cells: HEK293E
Nature of the assay: FGFR inhibitory activity, SRE luciferase assay in HEK293E cells stimulated with bFGF. The format is cell-based. The conditions noted are these: peptide at 10 μM, 0 to 10 ng/mL bFGF, FIG. 3. As for the experimental part:
The inhibitory activity of the FBP monomer peptide chemically synthesized with the FBP-PAS dimer peptide on FGFR was evaluated by luciferase assay. To 25 μL of Opti-MEM medium (Thermo Fisher Scientific), 0.6 μL of Attractene Transfection Reagent (QIAGEN) was added, and the mixture was incubated at room temperature for 5 minutes. To the above mixed solution, a mixed solution of 25 μL of Opti-MEM and 1 μL of SRE reporter vector (QIAGEN) was added, and the mixture was incubated at room temperature for 20 minutes. This mixed solution was added to a 96-well plate, over which 40,000 cell/well HEK293E cells were seeded and incubated overnight in a 5% CO2 incubator at 37° C. […]
The signal intensities were detected using Dual-Luciferase Reporter Assay System (Promega). […] The luminescence of Firefly luciferase emitted from the cell lysate solution was detected with a plate reader to quantify the activation of the FGFR-Erk-SRE pathway. Subsequently, 50 μL of Glo & Stop reagent solution was added, and after 10 minutes, the luminescence of the internal standard Renilla luciferase was detected to quantify the number of cells. The signal activity of each sample was quantified as SRE activity=(Firefly luciferase luminescence intensity)/(Renilla luciferase luminescence intensity). […]

For assay [4], the target named is Met (HGF receptor) (UniProt P08581). Nature of the assay: cell-based or functional assay.
The target of assay [5] is T2, EpoR (UniProt P19235 25-508, limits assumed).
T2 sequence (looked up): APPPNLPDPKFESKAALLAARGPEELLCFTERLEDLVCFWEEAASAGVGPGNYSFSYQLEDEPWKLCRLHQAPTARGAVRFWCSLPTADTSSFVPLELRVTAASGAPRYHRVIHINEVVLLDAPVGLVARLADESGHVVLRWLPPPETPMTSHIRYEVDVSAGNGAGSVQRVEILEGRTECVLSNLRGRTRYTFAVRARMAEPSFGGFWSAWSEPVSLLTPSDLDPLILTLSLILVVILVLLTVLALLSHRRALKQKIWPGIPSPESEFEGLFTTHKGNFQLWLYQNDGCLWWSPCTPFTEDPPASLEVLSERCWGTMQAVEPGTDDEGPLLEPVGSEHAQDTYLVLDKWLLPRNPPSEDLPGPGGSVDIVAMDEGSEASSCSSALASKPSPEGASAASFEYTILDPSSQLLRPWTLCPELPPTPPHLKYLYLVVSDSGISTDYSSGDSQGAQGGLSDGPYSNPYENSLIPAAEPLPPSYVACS
Nature of the assay: cell-based or functional assay.

Assay [6] concerns the target T2, EpoR. Nature of the assay: cell-based or functional assay. The source holds these as a separate data set.

Read-outs that look alike come from different tables or passages of the source. Positions of bridges follow the written chain, without caps; N, C: chain ends. No end group written: not given here.

The results in this text go back to patent US20220396819A1, “METHOD FOR PRODUCING PEPTIDE HAVING PHYSIOLOGICAL ACTIVITY, AND PEPTIDE COMPRISING SHORT LINKER” (priority 2019, published 2022).

Sequence of Met (HGF receptor) (P08581 25-1390 limits assumed): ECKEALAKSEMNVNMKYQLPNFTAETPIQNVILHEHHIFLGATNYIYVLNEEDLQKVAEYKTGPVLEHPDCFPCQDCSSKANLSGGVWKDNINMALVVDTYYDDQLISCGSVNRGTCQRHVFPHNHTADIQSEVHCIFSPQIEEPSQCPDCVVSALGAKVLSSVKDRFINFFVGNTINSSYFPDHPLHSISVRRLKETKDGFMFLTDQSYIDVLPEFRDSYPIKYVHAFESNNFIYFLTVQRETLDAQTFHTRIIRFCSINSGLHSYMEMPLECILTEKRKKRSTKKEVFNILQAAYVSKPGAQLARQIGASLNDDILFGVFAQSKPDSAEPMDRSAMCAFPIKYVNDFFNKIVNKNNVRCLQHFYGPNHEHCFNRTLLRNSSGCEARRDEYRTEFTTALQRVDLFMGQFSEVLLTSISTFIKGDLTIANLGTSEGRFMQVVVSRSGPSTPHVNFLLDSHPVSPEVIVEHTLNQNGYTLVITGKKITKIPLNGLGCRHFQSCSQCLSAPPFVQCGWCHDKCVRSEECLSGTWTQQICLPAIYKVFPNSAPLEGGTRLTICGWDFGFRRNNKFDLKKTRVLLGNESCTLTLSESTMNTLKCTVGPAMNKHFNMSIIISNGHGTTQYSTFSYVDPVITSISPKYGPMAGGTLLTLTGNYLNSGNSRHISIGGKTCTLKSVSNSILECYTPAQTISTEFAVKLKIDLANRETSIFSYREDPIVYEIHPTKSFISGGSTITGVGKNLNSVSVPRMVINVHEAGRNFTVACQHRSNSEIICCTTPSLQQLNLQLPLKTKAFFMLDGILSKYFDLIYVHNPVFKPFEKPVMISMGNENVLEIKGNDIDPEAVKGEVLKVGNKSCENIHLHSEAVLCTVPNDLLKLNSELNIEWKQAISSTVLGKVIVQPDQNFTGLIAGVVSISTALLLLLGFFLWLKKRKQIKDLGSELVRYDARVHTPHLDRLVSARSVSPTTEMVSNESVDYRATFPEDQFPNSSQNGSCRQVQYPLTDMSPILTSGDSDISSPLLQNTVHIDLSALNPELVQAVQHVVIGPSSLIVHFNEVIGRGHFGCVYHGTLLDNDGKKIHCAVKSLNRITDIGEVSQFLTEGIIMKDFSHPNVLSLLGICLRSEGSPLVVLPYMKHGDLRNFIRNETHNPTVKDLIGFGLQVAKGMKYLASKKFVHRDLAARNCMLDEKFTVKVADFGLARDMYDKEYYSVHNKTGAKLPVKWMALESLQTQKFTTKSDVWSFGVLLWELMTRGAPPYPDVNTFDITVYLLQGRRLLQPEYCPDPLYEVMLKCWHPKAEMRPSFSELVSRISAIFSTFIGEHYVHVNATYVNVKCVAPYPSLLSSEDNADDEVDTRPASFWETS
T1 sequence (P11362 22-822): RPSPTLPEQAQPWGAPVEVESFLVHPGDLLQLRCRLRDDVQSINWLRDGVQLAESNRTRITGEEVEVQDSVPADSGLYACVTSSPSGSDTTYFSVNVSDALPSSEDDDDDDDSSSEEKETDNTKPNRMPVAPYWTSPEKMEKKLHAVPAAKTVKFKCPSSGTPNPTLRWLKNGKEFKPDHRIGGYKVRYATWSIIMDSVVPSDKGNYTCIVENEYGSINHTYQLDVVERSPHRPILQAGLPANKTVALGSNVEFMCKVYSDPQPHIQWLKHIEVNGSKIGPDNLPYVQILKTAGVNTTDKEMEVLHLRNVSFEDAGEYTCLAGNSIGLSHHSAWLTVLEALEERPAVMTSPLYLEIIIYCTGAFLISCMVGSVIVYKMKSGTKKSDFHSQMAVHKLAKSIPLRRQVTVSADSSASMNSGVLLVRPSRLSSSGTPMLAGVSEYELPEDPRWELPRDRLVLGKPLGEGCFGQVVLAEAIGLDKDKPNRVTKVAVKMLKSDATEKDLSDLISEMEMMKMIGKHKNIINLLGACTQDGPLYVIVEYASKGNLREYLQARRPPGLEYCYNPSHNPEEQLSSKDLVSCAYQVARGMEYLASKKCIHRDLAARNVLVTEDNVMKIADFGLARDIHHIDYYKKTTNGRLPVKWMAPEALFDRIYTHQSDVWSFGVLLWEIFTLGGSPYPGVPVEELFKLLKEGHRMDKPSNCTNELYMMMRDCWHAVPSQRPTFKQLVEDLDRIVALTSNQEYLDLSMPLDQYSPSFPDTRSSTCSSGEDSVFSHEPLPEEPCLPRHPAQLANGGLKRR

Regarding “AETGGCADGPTLREWISFCGGAAPAAPAPGGCADGPTLREWISFCGG (disulfide 6-19, 32-45) [AET-TPO2-PAS8]”, in assay [1], the “increase in tyrosine phosphorylation levels compared with rhTPO” value (shortened to “increase”) is reported as “equal to or higher than that of rhTPO”.

As to “AETIEGPTLRQWLAARAAAPAAPAPIEGPTLRQWLAARA (AET-TPO1-PAS8)”, in assay [1], the “increase” value was “equal to or higher than that of rhTPO”.

With “GGCADGPTLREWISFCGGAAPAAPAPGGCADGPTLREWISFCGG (disulfide 3-16, 29-42) [TPO2-PAS8]”, the “phosphorylation levels of signal proteins compared with PBS (Mock group)” value in assay [2] was “increased in phosphorylation levels of Erk, CREB, Stat3, Stat5a, and Stat5b”. Further, the “luminescence intensity (HEL cell activation ability) compared with rhTPO” value in assay [1] (culture supernatant 1/100 to 1/10000 dilution, FIG. 42) is on record as “equal to or higher than that of the 100 ng/mL rhTPO stimulation group”. For the same molecule, the “increase” value in assay [1] is listed as “equal to or higher than that of rhTPO”. On to “RPGCGPRKPRTPKKCGSHGAAPAAPAPAAPAAPAPAAPAGRPGCGPRKPRTPKKCGSH (disulfide 4-15, 44-55) [FBP-PAS]”, for which the “inhibitory activity on FGFR (relative receptor activity)” value in assay [3] is “higher inhibitory activity than the FBP monomer peptide”.

For “recombinant human HGF (from UniProt P14210 32-728) (ligand)”, in assay [4], the rate of wound healing of HuCCT1 cells (33 ng/mL HGF) was found to be 1.6 times.

B1: AET-EPO-PAS22-PAS200 (peptide)
peptide: AETGGLYACHMGPMTWVCQPLRGAAPAAPAPAAPAAPAPAAPAAPGGLYACHMGPMTWVCQPLRGAAPAAPAPAAPAAPAPAAPAAPAPAAPAAPAPAAPAAPAPAAPAAPAPAAPAAPAPAAPAAPAPAAPAAPAPAAPAAPAPAAPAAPAPAAPAAPAPAAPAAPAPAAPAAPAPAAPAAPAPAAPAAPAPAAPAAPAPAAPAAPAPAAPAAPAPAAPAAPAPAAPAAPAPAAPAAPAPAAPAAPAPAAPAAPAPAAPAAPAP
modifications: two disulfide bonds in the molecule
For the molecule B1, the concentration for a half-maximal effect (EC50) in assay [5] came out at 0.85 ng/mL.

B2: AET-EPO-PAS22-PAS600 (peptide)
peptide: AETGGLYACHMGPMTWVCQPLRGAAPAAPAPAAPAAPAPAAPAAPGGLYACHMGPMTWVCQPLRGAAPAAPAPAAPAAPAPAAPAAPAPAAPAAPAPAAPAAPAPAAPAAPAPAAPAAPAPAAPAAPAPAAPAAPAPAAPAAPAPAAPAAPAPAAPAAPAPAAPAAPAPAAPAAPAPAAPAAPAPAAPAAPAPAAPAAPAPAAPAAPAPAAPAAPAPAAPAAPAPAAPAAPAPAAPAAPAPAAPAAPAPAAPAAPAPAAPAAPAPAAPAAPAPAAPAAPAPAAPAAPAPAAPAAPAPAAPAAPAPAAPAAPAPAAPAAPAPAAPAAPAPAAPAAPAPAAPAAPAPAAPAAPAPAAPAAPAPAAPAAPAPAAPAAPAPAAPAAPAPAAPAAPAPAAPAAPAPAAPAAPAPAAPAAPAPAAPAAPAPAAPAAPAPAAPAAPAPAAPAAPAPAAPAAPAPAAPAAPAPAAPAAPAPAAPAAPAPAAPAAPAPAAPAAPAPAAPAAPAPAAPAAPAPAAPAAPAPAAPAAPAPAAPAAPAPAAPAAPAPAAPAAPAPAAPAAPAPAAPAAPAPAAPAAPAPAAPAAPAPAAPAAPAPAAPAAPAPAAPAAPAPAAPAAPAPAAPAAPAPAAPAAPAPAAPAAPAPAAPAAPAPAAPAAPAPAAPAAPAP
modifications: two disulfide bonds in the molecule
As to B2, in assay [5], the “EC50” value stood at 0.32 ng/mL.

B3: AET-EPO-PAS22 (peptide)
peptide: AETGGLYACHMGPMTWVCQPLRGAAPAAPAPAAPAAPAPAAPAAPGGLYACHMGPMTWVCQPLRG
modifications: disulfide 9-18, 51-60
For the molecule B3, in assay [6], a half-maximal response (EC50) required 0.34 ng/mL.

B4: AET-EPO-PAS8 (peptide)
peptide: AETGGLYACHMGPMTWVCQPLRGAAPAAPAPGGLYACHMGPMTWVCQPLRG
modifications: disulfide 9-18, 37-46
As to B4, the “EC50” value in assay [6] came out at 0.19 ng/mL. As to GGLYACHMGPMTWVCQPLRG [monomer peptide EMP35], the midpoint of the response in assay [6], the EC50, lay at 110 ng/mL.

The EC50 is the concentration at which the effect is half-maximal.
